B1: GST–Rabin8-WT [human] / 6His–Rab11a [not stated] (parent complex)
chain 1: MANDPLEGFHEVNLASPTSPDLLGVYESGTQEQTTSPSVIYRPHPSALSSVPIQANALDVSELPTQPVYSSPRRLNCAEISSISFHVTDPAPCSTSGVTAGLTKLTTRKDNYNAEREFLQGATITEACDGSDDIFGLSTDSLSRLRSPSVLEVREKGYERLKEELAKAQRELKLKDEECERLSKVRDQLGQELEELTASLFEEAHKMVREANIKQATAEKQLKEAQGKIDVLQAEVAALKTLVLSSSPTSPTQEPLPGGKTPFKKGHTRNKSTSSAMSGSHQDLSVIQPIVKDCKEADLSLYNEFRLWKDEPTMDRTCPFLDKIYQEDIFPCLTFSKSELASAVLEAVENNTLSIEPVGLQPIRFVKASAVECGGPKKCALTGQSKSCKHRIKLGDSSNYYYISPFCRYRITSVCNFFTYIRYIQQGLVKQQDVDQMFWEVMQLRKEMSLAKLGYFKEEL
chain 2: MGTRDDEYDYLFKVVLIGDSGVGKSNLLSRFTRNEFNLESKSTIGVEFATRSIQVDGKTIKAQIWDTAGQERYRAITSAYYRGAVGALLVYDIAKHLTYENVERWLKELRDHADSNIVIMLVGNKSDLRHLRAVPTDEARAFAEKNGLSFIETSALDSTNVEAAFQTILTEIYRIVSQKQMSDRRENDMSPSNNVVPIHVPPTTENKPKVQCCQNI
B2: GST–Rabin8-WT [human] / 6His–Rab8a [not stated] (parent complex)
chain 1: B1 chain 1
chain 2: MAKTYDYLFKLLLIGDSGVGKTCVLFRFSEDAFNSTFISTIGIDFKIRTIELDGKRIKLQIWDTAGQERFRTITTAYYRGAMGIMLVYDITNEKSFDNIRNWIRNIEEHASADVEKMILGNKCDVNDKRQVSKERGEKLALDYGIKFMETSAKANINVENAFFTLARDIKAKMDKKLEGNSPQGSNQGVKITPDQQKRSSFFRCVLL

Variants of: B1
Assay: GST pull-down, immunoblot quantified with Image Lab 6.1; purified Rab11 in the presence of GTPγS; n=3; parent: 8.5; read off a plot

response	Variant
~9	chain 1 F201A
~9.5	chain 1 E192A

Variants of: B1
Assay: GST pull-down, immunoblot quantified with Image Lab 6.1; purified Rab11 in the presence of GTPγS; n=3; P=0.0012 vs WT; parent: 8.5; read off a plot

response	Variant
~2.5	chain 1 T419A, chain 1 Y423A, chain 1 L428A

Variants of: B2
Assay: GST pull-down, immunoblot quantified with Image Lab 6.1; purified Rab8 in the presence of GDPβS; n=3; parent: 4.5; read off a plot

response	Variant
~4.5	chain 1 T419A, chain 1 Y423A, chain 1 L428A
~4.5	chain 1 F201A
~4.5	chain 1 E192A
